The supplement of paper PMC10201428
± gives the standard deviation of the averaged measurements.

Columns and labels:
[1] = test system: VchCAST RNA-guided transposition machinery (E. coli BL21(DE3) host, lacZ target); test: relative integration efficiency (T-RL orientation) vs wild-type transposon end (log2 (normalized fold change)); transposon end mutated: right end (5 bp flank + 75 bp right end); higher = more efficient transposition
Summary of the method: (§1)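 Barcode abundances in input plasmids and in genomic integration junctions were obtained by PCR amplification and Illumina sequencing. These came from E. coli BL21(DE3) co-transformed with a T7-driven effector plasmid and a pUC57 donor carrying 1549 left-end or 1849 right-end transposon variants, then plated with 0.1 mM IPTG at 37°C for 18 h. Relative integration efficiency is the output/input fold change, normalised to reference barcodes and log-transformed.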

[2] = test system: VchCAST RNA-guided transposition machinery (E. coli BL21(DE3) host, lacZ target); test: relative integration efficiency (T-LR orientation) vs wild-type transposon end (log2 (normalized fold change)); transposon end mutated: right end (5 bp flank + 75 bp right end); higher = more efficient transposition
Summary of the method: as §1

Sequence | relative integration efficiency (log2) [1] | relative integration efficiency (log2) [2]
ACATTTGTTGATACAACCATAAAATGATAATTACACCCATAAATTGATAATTCACACCCATAAATTGATATTGCCTCTGATCATAGTCAGACCAACATTGCTACGACCCGTATTCGCACCGACACTG | -1.06 ± 0.18 | 1.41 ± 0.045
ACATTTGTTGATACACCCATAAATTGATAATTACAACCATATATTGATATCTCTCACAACCATAAAATGATAATTACTCTGATCATAGTCAGACCAACATTGCTACGACCCGTATTCGCACCGACAC | -0.747 ± 0.26 | -0.825 ± 0.58
ACATTTGTTCATACAACCATAAAATGATAATTCACCCATCAATTGATAATTATCACACCCCAATTTAACTATAACGCTCTGATCATAGTCAGACCAACATTGCTACGACCCGTATTCGCACCGACAC | -4.48 ± 0.28 | -2.51 ± 0.15
ACATTTGTTGATACAACCCGCCAATGATAATTACACCCATAAATTGATAATTATCACACCCATAAATTGATATTGCCTCTGATCATAGTCAGACCAACATTGCTACGACCCGTATTCGCACCGACAC | -4.28 ± 0.2 | -3.85 ± 0.3
ACATTTGTTGATACAACCATAAAGTGATATTTACAACCATAAAATGATAATTATCACACCCATAAATTGATAATTACTCTGATCATAGTCAGACCAACATTGCTACGACCCGTATTCGCACCGACAC | 0.346 ± 0.076 | 0.307 ± 0.068
ACATTTGTTGATACAACCATAAAGTGATATTTACAACCATAAAGTGATATTTATCACACCCATAAATTGATAATTACTCTGATCATAGTCAGACCAACATTGCTACGACCCGTATTCGCACCGACAC | 0.0651 ± 0.0083 | 0.289 ± 0.082
ACATTTGTTGATACAACCATAAAATCATCATTACCCCCATCAATTGATAATTATCACACCCCATTTAACTATAACGCTCTGATCATAGTCAGACCAACATTGCTACGACCCGTATTCGCACCGACAC | -5.76 ± 0.07 | -1.95 ± 0.53
ACATTTGTTGATACAACCATAAAATCATCATTACACCCATCAATTGATAATTATCCCACCCCATTTAACTATAACGCTCTGATCATAGTCAGACCAACATTGCTACGACCCGTATTCGCACCGACAC | -4.36 ± 0.26 | -1.08 ± 0.22
ACATTTGTTGATACAACCATAAAATGATAATTACACCCATAAATTGATAATTATCACACCCAGCCCGGTCGCGGTAAGAGGATCATAGTCAGACCAACATTGCTACGACCCGTATTCGCACCGACAC | -0.344 ± 0.16 | 2.65 ± 0.059
ACATTTGTCGATACAACCCTAAAATGATAATTACACCCATAAATTGATCATTATCACACCCAATTTAACTATAACGCTCTGATCATAGTCAGACCAACATTGCTACGACCCGTATTCGCACCGACAC | -3 ± 0.31 | 0.178 ± 0.16
ACATTTGTTGATACAACCATAAAATGATAATTACACCCATCCATTGATAATTATCACACCCATAAATTGATATTGCCTCTGATCATAGTCAGACCAACATTGCTACGACCCGTATTCGCACCGACAC | -1.21 ± 0.089 | -1.63 ± 1
ACATTTGTTGATACAACCATAAAATTCGCCGGCACAAACGCCCGGTCGCCGGCGACACAAACGCCCGGTCGCGGTAAGAGGATCATAGTCAGACCAACATTGCTACGACCCGTATTCGCACCGACAC | -4.45 ± 0.73 | -0.949 ± 0.46
ACATTTGTTGATACAACCATAAAATGATAATTACACCCATAAATACATAATTATCACACCCATAAATTGATATTGCCTCTGATCATAGTCAGACCAACATTGCTACGACCCGTATTCGCACCGACAC | -0.763 ± 0.18 | -0.737 ± 0.026
ACATTTGTTGATACAACCATATATTGATATCTCCACCCATAAATTGATATTGCTCACAACCATAAAGTGATATTTACTCTGATCATAGTCAGACCAACATTGCTACGACCCGTATTCGCACCGACAC | -0.6 ± 0.069 | -0.202 ± 0.54
ACATTTGTTGATACAACCATAAAATGATTTAAACACCCATAAATTGATAATTATCACACCCATAAATTGATATTGCCTCTGATCATAGTCAGACCAACATTGCTACGACCCGTATTCGCACCGACAC | -0.3814 ± 0.0024 | -0.234 ± 0.29
ACATTTGTTGATACAACCATAAAATGATAATTATAATTATCATTTTATGGTTGTCACAACCATAAAATGATAATTACTCTGATCATAGTCAGACCAACATTGCTACGACCCGTATTCGCACCGACAC | -3.2 ± 0.33 | -1.19 ± 0.18
ACATTTGTTCATACAACCATAAAATGATAATTCACCCATAAATTGATAATTATCACACCCCAATTTAACTATAACGCTCTGATCATAGTCAGACCAACATTGCTACGACCCGTATTCGCACCGACAC | -2.26 ± 0.18 | -0.502 ± 0.27
ACATTTGTTGATACAACCATAAAATGATAATTACACCCATAAATTGATAATTATCACACCCATAAATTGATATTGCCTCTGATAACTTCGTATAATGTATCGTATACGAACGGTATCGCACCGACAC | -0.379 ± 0.29 | -0.264 ± 0.53

Sequence | relative integration efficiency (log2) [1] | relative integration efficiency (log2) [2]
ACATTTGTTGATACAACCATAAAATGATAATGCACCCCATAAATTGATAATTATCACACCCATAAATTGATATTGCCTCTGATCATAGTCAGACCAACATTGCTACGACCCGTATTCGCACCGACAC | -1.24 ± 0.24 | -0.689 ± 0.18
ACATTTGTTGATACAACCATAAAATGATAATTAATAATTATTTATAATCAGCCACCCATAAATTGATAATTATCACACCCATAAATTGATATTGCCTCTGATCATAGTCAGACCAACATTGCTACGA | -3.35 ± 0.33 | -0.898 ± 1.2
ACATTTGTTGATACAACCATAAAATGATAATTAATAATTATTTATAATCAGCAACTTAACCACAAAACACCCATAAATTGATAATTAACAACACCCATAAATTGATATTGCCTCTGATCATAGTCAG | -4.56 ± 0.76 | -1.12 ± 0.49
ACATTAGTTGATACAACCATAAAATGATAATTACACCCATAAATGGATAATTATCACACCCAATTTAACTATAACGCTCTGATCATAGTCAGACCAACATTGCTACGACCCGTATTCGCACCGACAC | -6.45 ± 0.32 | -4.68 ± 1.3
ACATTTGTTGATACAACCATAAAATGATAATTAACAAACGCCCGGTCGCCGGCTCAACAAACGCCCGGTCGCGGTACTCTGATCATAGTCAGACCAACATTGCTACGACCCGTATTCGCACCGACAC | -1.98 ± 0.26 | 1.12 ± 0.068
ACATTTGTTCATACAACCCTAAAATGATAATTACACCCATAAATGGATAATTATCACACCCAATTTAACTATAACGCTCTGATCATAGTCAGACCAACATTGCTACGACCCGTATTCGCACCGACAC | -3.9 ± 0.37 | -2.78 ± 0.54
ACATTTGTTGATAGTTGCATAAAATGATAATTACACCCATAAATTGATAATTATCACACCCATAAATTGATATTGCCTCTGATCATAGTCAGACCAACATTGCTACGACCCGTATTCGCACCGACAC | -1.07 ± 0.13 | -1.37 ± 0.15
ACATTTGTTCATACAACCATAAAATGATAATTACACCCATAAATTCATCATTATCACCCCCAATTTAACTATAACGCTCTGATCATAGTCAGACCAACATTGCTACGACCCGTATTCGCACCGACAC | -1.97 ± 0.36 | 0.174 ± 0.27
ACATTTGTTGATACAACCATAAAATGATAATTAATAATTATTTACACCCATAAATTGATAATTATCACACCCATAAATTGATATTGCCTCTGATCATAGTCAGACCAACATTGCTACGACCCGTATT | -2.85 ± 0.13 | -4.57 ± 0.14
ACATTTGTTGATACAACCATAAAATCATCATTACACCCATCAATTGATAATTATCCCACCCAATTTAACTATAACGCTCTGATCATAGTCAGACCAACATTGCTACGACCCGTATTCGCACCGACAC | -4.67 ± 0.2 | -1.17 ± 0.061
ACATTTGTTGATACACACATAAAATGATAATTACACCCATAAATTGATAATTATCACACCCATAAATTGATATTGCCTCTGATCATAGTCAGACCAACATTGCTACGACCCGTATTCGCACCGACAC | -0.5621 ± 0.0046 | -0.763 ± 0.33
ACATTTGTTGATACCACCATCAAATGGTAATTCCACCCCTACATTGATAATTATCACACCCAATTTAACTATAACGCTCTGATCATAGTCAGACCAACATTGCTACGACCCGTATTCGCACCGACAC | -6.99 ± 0.2 | -3.726 ± 0.034
ACATTAGTCGATACAACCATAAAATGATAATTACACCCATAAATGGATCATTATCACACCCAATTTAACTATAACGCTCTGATCATAGTCAGACCAACATTGCTACGACCCGTATTCGCACCGACAC | -8.21 ± 0.66 | -5.41 ± 0.28
ACATTTGTTGATACAACCCTAAAATGATAATTACACCCATAAATGGATCATTATCACACCCAATTTAACTATAACGCTCTGATCATAGTCAGACCAACATTGCTACGACCCGTATTCGCACCGACAC | -3.87 ± 0.32 | -1.52 ± 0.39
ACATTTGTTGATACAACCATAAAATGATAATTACAAAACTAAATTGATAATTATCACACCCATAAATTGATATTGCCTCTGATCATAGTCAGACCAACATTGCTACGACCCGTATTCGCACCGACAC | -2.29 ± 0.15 | -2.92 ± 0.79
ACATTTGTTGATACAACCATAAAATGATAATTACACCCATCAATTGATAATTATCCCACCCAATTTAACTATAACGCTCTGATCATAGTCAGACCAACATTGCTACGACCCGTATTCGCACCGACAC | -1.93 ± 0.31 | 1.54 ± 0.022
ACATTTGTTGATACCACCATCAAATGGTAATTCCACCCCTAAATTGATAATTATCACACCCAATTTAACTATAACGCTCTGATCATAGTCAGACCAACATTGCTACGACCCGTATTCGCACCGACAC | -6.33 ± 0.84 | -4 ± 0.18
